Reference: the supplement of paper PMC7877785
± gives the uncertainty stated by the source.

Assay: self-splicing fitness, log relative to wild type (ln ratio); higher = more splicing; Tetrahymena group I intron in knt gene, E. coli kanamycin selection, DiMSum; sequences stand for … in CUCUCU…GGAGGGAAAAGUUAUCAGGCAUGCACCUGGUAGCUAGUCUUUAAACCAAUAGAUUGCAUCGGUUUAAAAGGCAAGACCGUCAAAUUGCGGGAAAGGGGUCAACAGCCGUUCAGUACCAAGUCUCAGGGGAAACUUUGAGAUGGCCUUGCAAAGGGUAUGGUAAUAAGCUGACGGACAUGGUCCUAACCACGCAGCCAAGUCCUAAGUCAACAGAUCUUCUGUUGAUAUGGAUGCAGUUCACAGACUAAAUGUCGGUCGGGGAAGAUGUAUUCUUCUCAUAAGAUAUAGUCGGACCUCUCCUUAAUGGGAGCUAGCGGAUGAAGUGAUGCAACACUGGAGCCGCUGGGAACUAAUUUGUAUGCGAAAGUAUAUUGAUUAGUUUUGGAGUACUCGUGGUCG
How it was run: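 Pooled colonies went to amplicon sequencing on an Illumina HiSeq 2500 after six replicate transformations. The plates were LB agar with 100 μg/mL carbenicillin, 50 μM IPTG and 0.2% rhamnose, with or without 25 μg/mL kanamycin, incubated overnight at 37°C or 30°C. The E. coli BL21(DE3) library had all eight P1ex-region intron nucleotides randomised, the intron placed in the knt kanamycin-resistance gene on pET-22b(+). DiMSum fitness is the error-weighted combination of replicate fold changes, kanamycin against none, normalised to wild type.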

ACCGAGCAAUAUUACGAUUC
self-splicing fitness (ln) (30 °C): -3.37 ± 0.25
self-splicing fitness (ln) (37 °C): -3.31 ± 0.31

ACCGAGCAAUAUUACGCCGA
self-splicing fitness (ln) (30 °C): -2.48 ± 0.47
self-splicing fitness (ln) (37 °C): -2.74 ± 0.38

ACCGAGCAAUAUUACGCCGC
self-splicing fitness (ln) (30 °C): -2.66 ± 0.32
self-splicing fitness (ln) (37 °C): -2.1 ± 0.29

ACCGAGCAAUAUUACGCCUA
self-splicing fitness (ln) (37 °C): -1.93 ± 0.28

ACCGAGCAAUAUUACGCGGU
self-splicing fitness (ln) (30 °C): -3.02 ± 0.18
self-splicing fitness (ln) (37 °C): -1.7 ± 0.2

ACCGAGCAAUAUUACGGAGC
self-splicing fitness (ln) (30 °C): -3.33 ± 0.18
self-splicing fitness (ln) (37 °C): -1.73 ± 0.13

ACCGAGCAAUAUUACGGCGU
self-splicing fitness (ln) (30 °C): -0.733 ± 0.082
self-splicing fitness (ln) (37 °C): -0.172 ± 0.11

ACCGAGCAAUAUUACGGGAA
self-splicing fitness (ln) (30 °C): -2.52 ± 0.21
self-splicing fitness (ln) (37 °C): -2.56 ± 0.22

ACCGAGCAAUAUUACGGGAG
self-splicing fitness (ln) (30 °C): -3.54 ± 0.2
self-splicing fitness (ln) (37 °C): -2.69 ± 0.3

ACCGAGCAAUAUUACGGUCG
self-splicing fitness (ln) (30 °C): -3.22 ± 0.23
self-splicing fitness (ln) (37 °C): -1.68 ± 0.15

ACCGAGCAAUAUUACGGUGC
self-splicing fitness (ln) (30 °C): -2.97 ± 0.21
self-splicing fitness (ln) (37 °C): -3.33 ± 0.37

ACCGAGCAAUAUUACGUACU
self-splicing fitness (ln) (30 °C): -2.31 ± 0.13
self-splicing fitness (ln) (37 °C): -0.966 ± 0.14

ACCGAGCAAUAUUACGUAUA
self-splicing fitness (ln) (30 °C): -3.96 ± 0.35
self-splicing fitness (ln) (37 °C): -2.6 ± 0.27

ACCGAGCAAUAUUACGUAUU
self-splicing fitness (ln) (30 °C): -3.21 ± 0.16
self-splicing fitness (ln) (37 °C): -1.98 ± 0.17

ACCGAGCAAUAUUACGUCAG
self-splicing fitness (ln) (30 °C): -3.7 ± 0.16
self-splicing fitness (ln) (37 °C): -2.73 ± 0.17

ACCGAGCAAUAUUACGUCCU
self-splicing fitness (ln) (30 °C): -1.71 ± 0.1
self-splicing fitness (ln) (37 °C): -0.0861 ± 0.11

ACCGAGCAAUAUUACGUCGG
self-splicing fitness (ln) (30 °C): -4.23 ± 0.39
self-splicing fitness (ln) (37 °C): -3.13 ± 0.35

ACCGAGCAAUAUUACGUGGG
self-splicing fitness (ln) (30 °C): -2.62 ± 0.18
self-splicing fitness (ln) (37 °C): -2.87 ± 0.2

ACCUAGCAAUAUUACGAAGC
self-splicing fitness (ln) (30 °C): -1.56 ± 0.11
self-splicing fitness (ln) (37 °C): -0.832 ± 0.15

ACCUAGCAAUAUUACGACUG
self-splicing fitness (ln) (30 °C): -2.84 ± 0.15
self-splicing fitness (ln) (37 °C): -1.46 ± 0.18

ACCUAGCAAUAUUACGAGAC
self-splicing fitness (ln) (30 °C): -3.14 ± 0.4
self-splicing fitness (ln) (37 °C): -1.89 ± 0.24

ACCUAGCAAUAUUACGAGCC
self-splicing fitness (ln) (30 °C): -2.81 ± 0.19
self-splicing fitness (ln) (37 °C): -2.37 ± 0.3

ACCUAGCAAUAUUACGAGUG
self-splicing fitness (ln) (30 °C): -1.43 ± 0.077
self-splicing fitness (ln) (37 °C): -0.982 ± 0.092

ACCUAGCAAUAUUACGAGUU
self-splicing fitness (ln) (30 °C): -2.28 ± 0.087
self-splicing fitness (ln) (37 °C): -1.24 ± 0.1

ACCUAGCAAUAUUACGAUCG
self-splicing fitness (ln) (30 °C): -1.19 ± 0.083
self-splicing fitness (ln) (37 °C): -0.6 ± 0.1

ACCUAGCAAUAUUACGCCCA
self-splicing fitness (ln) (30 °C): -1.16 ± 0.11
self-splicing fitness (ln) (37 °C): -0.343 ± 0.12

ACCUAGCAAUAUUACGCCCG
self-splicing fitness (ln) (30 °C): -1.73 ± 0.27
self-splicing fitness (ln) (37 °C): -1.13 ± 0.28

ACCUAGCAAUAUUACGCCGC
self-splicing fitness (ln) (30 °C): -2.21 ± 0.32
self-splicing fitness (ln) (37 °C): -2.05 ± 0.4

ACCUAGCAAUAUUACGCGGG
self-splicing fitness (ln) (30 °C): -3.58 ± 0.24

ACCUAGCAAUAUUACGCUAU
self-splicing fitness (ln) (30 °C): -1.89 ± 0.084
self-splicing fitness (ln) (37 °C): -1.1 ± 0.1

ACCUAGCAAUAUUACGGAUC
self-splicing fitness (ln) (30 °C): -2.65 ± 0.13
self-splicing fitness (ln) (37 °C): -1.35 ± 0.15

ACCUAGCAAUAUUACGGCCG
self-splicing fitness (ln) (30 °C): -2.22 ± 0.43
self-splicing fitness (ln) (37 °C): -1 ± 0.34

ACCUAGCAAUAUUACGGCUG
self-splicing fitness (ln) (30 °C): -4.76 ± 0.36
self-splicing fitness (ln) (37 °C): -2.32 ± 0.18

ACCUAGCAAUAUUACGGCUU
self-splicing fitness (ln) (30 °C): -0.695 ± 0.076
self-splicing fitness (ln) (37 °C): 0.252 ± 0.098

ACCUAGCAAUAUUACGGGCA
self-splicing fitness (ln) (30 °C): -0.58 ± 0.11
self-splicing fitness (ln) (37 °C): 0.19 ± 0.13

ACCUAGCAAUAUUACGGUAA
self-splicing fitness (ln) (30 °C): -2.62 ± 0.13
self-splicing fitness (ln) (37 °C): -1.89 ± 0.13

ACCUAGCAAUAUUACGUAAG
self-splicing fitness (ln) (30 °C): -1.53 ± 0.065
self-splicing fitness (ln) (37 °C): -0.172 ± 0.081

ACCUAGCAAUAUUACGUGGG
self-splicing fitness (ln) (30 °C): -3.54 ± 0.17
self-splicing fitness (ln) (37 °C): -3.4 ± 0.24

ACCUAGCAAUAUUACGUGGU
self-splicing fitness (ln) (30 °C): -3.6 ± 0.14
self-splicing fitness (ln) (37 °C): -2.95 ± 0.16

ACCUAGCAAUAUUACGUGUU
self-splicing fitness (ln) (30 °C): -3.18 ± 0.1
self-splicing fitness (ln) (37 °C): -1.4 ± 0.085

ACCUAGCAAUAUUACGUUGG
self-splicing fitness (ln) (30 °C): -2.35 ± 0.092
self-splicing fitness (ln) (37 °C): -2.46 ± 0.14

ACGAAGCAAUAUUACGAAUA
self-splicing fitness (ln) (30 °C): -2.01 ± 0.26
self-splicing fitness (ln) (37 °C): 0.937 ± 0.18

ACGAAGCAAUAUUACGACUG
self-splicing fitness (ln) (30 °C): -0.657 ± 0.09
self-splicing fitness (ln) (37 °C): -0.396 ± 0.098

ACGAAGCAAUAUUACGAGUC
self-splicing fitness (ln) (30 °C): -4.22 ± 0.24
self-splicing fitness (ln) (37 °C): -2.21 ± 0.19

ACGAAGCAAUAUUACGAUCU
self-splicing fitness (ln) (30 °C): -0.659 ± 0.081
self-splicing fitness (ln) (37 °C): -0.244 ± 0.082

ACGAAGCAAUAUUACGCAAG
self-splicing fitness (ln) (30 °C): -1.02 ± 0.14
self-splicing fitness (ln) (37 °C): -0.171 ± 0.18

ACGAAGCAAUAUUACGCAGG
self-splicing fitness (ln) (30 °C): -1.67 ± 0.11
self-splicing fitness (ln) (37 °C): -1.44 ± 0.12

ACGAAGCAAUAUUACGCGGG
self-splicing fitness (ln) (30 °C): -1.62 ± 0.086
self-splicing fitness (ln) (37 °C): -0.782 ± 0.1
